From patent publication US20240350646A1, “METHODS AND COMPOSITIONS FOR DELIVERY TO AND ACROSS THE BLOOD BRAIN BARRIER” (NUtech Ventures, priority 2021, published 2024)

Experiments:
[1] = K^trans DCE-MRI: brain region accumulation and retention of NPs; type: in vivo, C57BL/6J mice; details: for K^trans, corpus callosum (CC): 100 μL of 0.5 mM NP via tail vein
Description: Both male and female young (6-8 weeks) C57BL/6J mice (Jackson Laboratory, Bar Harbor, ME) and middle aged (12 months) C57BL/6J and CX3CR1-GFP (Jackson Laboratory, Bar Harbor, ME) from a C57BL/6J background mice were used. Mice were housed in a 12 h/12 h day/night cycle with ad libitum access to standard mouse chow and water. All animal work was approved by and performed under the guidance of the University of Nebraska-Lincoln IACUC.
In vivo NP assessment consisted of dynamic contrast-enhanced (DCE)-MRI using a 9.4T MRI system (Varian) to compare targeting agent effect on the uptake as previously described (Miller et al., 2019, Scientific Reports, 9:16099). Briefly, mice were induced with about 2% isoflurane gas and maintained at a concentration sufficient to achieve 50 to 80 breaths per minute. Baseline T1 maps were generated using a gradient-echo sequence and the variable flip angle method with two angles, 10° and 30° (Deoni et al., 2003, Magn. Reson. Med., 49:515-26). Mice were injected with 100 μL of a 0.5 mM NP solution via tail vein catheter followed by 100 μL PBS to flush all remaining NP solution. A flip angle of 30° was used for all post-contrast scans, which occurred for 1 h following injection. TR was between 54 and 84 ms, TE between 2.73 and 4.24 ms, matrix size between 128×128 and 256×256, FOV between 20×20×10 mm^3 and 25×25×10 mm^3 depending on the experiment. NEX varied with matrix size to maintain temporal resolution, with 128×128, NEX=5 for all scans, with 256×256, NEX=4 for baseline and 1 for post-contrast scans.
Following serial image acquisition, resulting in about 100 post-contrast scans per animal, R1, concentration, and K^trans mapping were performed using custom MATLAB script. R1 mapping was performed using the variable flip angle method based on the following equation (Deoni et al., 2005, Magn. Reson. Med., 53:237-41: […]
where SSPGR is signal intensity, α is FA, E1 is […], and M0 is a proportionality factor related to longitudinal magnetization. E1 describes the linear relationship between the two signal intensity ratios, taking the slope, m, of that line enables calculation of T1 as:
Concentration maps were then generated by comparison of baseline R1 maps with post-contrast R1 maps using the following equation: […]
where C(t) is the concentration at time t, R1(t) is the post contrast R1-value at t, RT(t0) is baseline R1, and r1 is relaxivity of the contrast agent. K^trans, the contrast extravasation rate constant, mapping was then performed using a reference region (RR) model derived from the extended Tofts' model (Tofts et al., 1999, J. Magn. Reson. Imaging, 10:223-232):
where CTOI and CRR are concentrations in the tissue of interest (TOI) and the RR, respectively, K^trans,TOI and K^trans, RR are K^trans in the TOI and RR, respectively, and ve,TOI and ve,RR are extravascular-extracellular volume fractions for the TOI and RR, respectively. Muscle tissue from within the FOV was used in all animals as the RR. MATLAB was used to execute a least squares curve fitting routine to calculate K^trans for each voxel in the brain.

human claudin-3 = biological target: T1, human claudin-3 (human, UniProt O15551 1-220, limits assumed); experiment: MST, sigmoidal dose-response fit (GraphPad Prism) of the FIG. 10A data, M is the unit of the concentration axis of panel A; fit without amplitude, confidence interval undefined [panel B]
T1 sequence (looked up): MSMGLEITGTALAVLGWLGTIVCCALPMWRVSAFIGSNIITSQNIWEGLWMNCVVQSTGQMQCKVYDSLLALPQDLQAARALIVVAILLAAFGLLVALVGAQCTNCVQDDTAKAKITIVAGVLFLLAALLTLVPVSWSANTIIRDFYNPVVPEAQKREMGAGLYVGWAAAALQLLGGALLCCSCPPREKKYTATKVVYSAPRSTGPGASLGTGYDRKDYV
Description: FIG. 10A is a graph showing binding of human claudins 3, 4 and 9 to C1C2-NPs using microscale thermophoresis. […] FIG. 10C is a graph showing the binding of human claudins 4 and 9 to control NPs monitored using microscale thermophoresis. […] Data fitting for human claudins 3, 4 and 9 were performed using Graph Pad Prism.
Human claudin-1 was expressed and purified as reported previously (Vecchio & Stroud, 2019, PNAS USA, 116:17817-24). MST measurements were performed using a Monolith instrument (NanoTemper Technologies). For experiments with human claudin-1, the assay buffer contained 10 mM Tris HCl, pH 8.0, 100 mM NaCl, 4% glycerol, and 0.04% n-Dodecyl-β-D-Maltopyranoside (β-DDM). NPs and peptides were labeled with AF647 prior to MST analysis as described above. For the binding experiments, the concentration of human claudin-1 was varied from 2.2-73,500 nM and the AF647-labeled C1C2-NP was fixed at 70 nM, while the AF647 labeled NPs and AF647 labeled C1C2 peptide were fixed at 1 and 0.3 μM, respectively. Binding of the AF647 labeled C1C2-NP to human claudin-3, -4, and -9 were tested using 0.4-14000 nM, 0.8-28000 nM, and 0.6-20000 nM, respectively; with the AF647 labeled C1C2-NP fixed at 70 nM. This assay buffer was similar, except β-DDM was replaced with 0.1% n-Undecyl-β-D-Maltopyranoside (beta-UDM).

[2] = old (1-year-old) mice, listed as C1C2-NPs

For “C1C2-NP: PEG diacid coated ultrasmall Gd NP conjugated with C1C2 peptide SSVSQSTGQIQSKVDSLLNLNSTQATR (SEQ ID NO: 6); claudin-1 targeted (Ac-SSVSQSTGQIQSKVDSLLNLNSTQATR-NH2; also: conjugated to PEG diacid coated ultrasmall Gd nanoparticle)”, the “K^trans, cortex (CTX)” value ([1]; old (1-year-old) mice) was 0.0148 min⁻¹, the “K^trans, hippocampus (HC)” value ([1]; old (1-year-old) mice) was 0.0040 min⁻¹ and the “K^trans, hypothalamus (HT)” value ([1]; old (1-year-old) mice) was 0.0102 min⁻¹. For the same molecule, the “K^trans, muscle” value ([1]; old (1-year-old) mice) was 0.0057 min⁻¹, the “K^trans, corpus callosum (CC)” value ([1]; old (1-year-old) mice) was 0.0058 min⁻¹ and the “K^trans, corpus callosum (CC)” value [1, 2] was 0.0058 min⁻¹. The “K^trans, cortex (CTX)” value [1, 2] was 0.0145 min⁻¹, the “K^trans, hippocampus (HC)” value [1, 2] was 0.0040 min⁻¹ and the “K^trans, hypothalamus (HT)” value [1, 2] was 0.0134 min⁻¹. For the same molecule, the “K^trans, cortex (CTX)” value ([1]; young mice) was 0.0022 min⁻¹, the “K^trans, hippocampus (HC)” value ([1]; young mice) was 0.0019 min⁻¹ and the “K^trans, hypothalamus (HT)” value ([1]; young mice) was 0.0026 min⁻¹. For the same molecule, the “K^trans, muscle” value ([1]; young mice) was 0.0028 min⁻¹ and the “K^trans, corpus callosum (CC)” value ([1]; young mice) was 0.0019 min⁻¹.

B1: C1C2-NP (C1C2 peptide conjugated to PEG diacid coated ultrasmall Gd nanoparticles) (peptide)
peptide: Ac-SSVSQSTGQIQSKVDSLLNLNSTQATR-NH2
modifications: not fully specified; also: conjugated by EDC-NHS chemistry to PEG diacid on Gd oxide nanoparticle surface (19 peptides per 3.5 nm particle)
notes: The protein part is the C1C2 peptide; the core is not a protein; also called C1C2-NPs; C1C2 NPs
Work on B1 yielded an EC50 (human claudin-3) of 88.1 nM.
